The text below walks through data of patent US20200392227A1 (LYVGEN BIOPHARMA, published 2020).

Assay [1] addresses T1, human FcγRIIC expressed on CHO cells (human, UniProt P31995 43-323).
T1 construct: whole, on cells
T1 sequence (looked up): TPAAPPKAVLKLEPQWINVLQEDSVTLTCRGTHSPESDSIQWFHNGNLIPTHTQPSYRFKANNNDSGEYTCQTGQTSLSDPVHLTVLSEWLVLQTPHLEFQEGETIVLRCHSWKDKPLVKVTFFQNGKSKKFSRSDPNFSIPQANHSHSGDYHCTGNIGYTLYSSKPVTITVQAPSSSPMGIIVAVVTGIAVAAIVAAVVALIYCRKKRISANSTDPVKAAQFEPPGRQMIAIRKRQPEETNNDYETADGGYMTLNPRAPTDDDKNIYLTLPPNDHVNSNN
Description: FACS, CHO cells expressing FcγRIIC. As for the experimental part:
For FACS analysis of the IgG mutants' binding to different FcγRs, FcγR overexpressing CHO cells were harvested using trypsin-EDTA and were suspended in cold staining buffer (3% BSA in PBS). Test IgG mutants, which were diluted in staining buffer, were added into the cells. The mixture was incubated 4° C. for 2 hours, and then washed twice with cold staining buffer and re-suspended in PE-labeled anti-human IgG followed by incubation at 4° C. for 2 hours. The mixture was washed twice with staining buffer and re-suspended in 2% PFA in PBS for FACS.
A general note: Flow cytometry measures light scatter and fluorescence of single cells or particles in a stream.

Assay [2] concerns the target T2, human FcRIIB/C protein (MednaBio, E1034) (human, UniProt P31994 43-217, limits assumed).
T2 construct: Bought as FcRIIB/C; also called FcγRIIB; CD32B
T2 sequence (looked up): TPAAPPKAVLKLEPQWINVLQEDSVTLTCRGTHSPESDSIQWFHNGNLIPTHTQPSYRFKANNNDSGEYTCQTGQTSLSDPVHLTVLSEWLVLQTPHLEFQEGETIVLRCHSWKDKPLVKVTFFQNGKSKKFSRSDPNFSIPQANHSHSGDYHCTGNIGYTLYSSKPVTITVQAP
Description: BLI. The gist of the method: (§1)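 Binding was measured by biolayer interferometry on an Octet Red96 System, with commercial human Fc receptor proteins loaded at 20 μg/mL onto anti-penta-HIS biosensors. Sensors were dipped into an 8-point 1:3 dilution series of test IgG starting at 300 nM in PBS with 0.1% BSA and 0.02% Tween-20. Fcγ receptor assays ran at pH 7.2 and FcRn assays at pH 6. Kd, kon and koff came from global fitting to a 1:1 binding model.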

The target of assay [3] is T3, human FcRIIA protein (MednaBio, E1033) (human, UniProt P12318 34-218, limits assumed).
T3 construct: Bought; also called FcγRIIA
T3 sequence (looked up): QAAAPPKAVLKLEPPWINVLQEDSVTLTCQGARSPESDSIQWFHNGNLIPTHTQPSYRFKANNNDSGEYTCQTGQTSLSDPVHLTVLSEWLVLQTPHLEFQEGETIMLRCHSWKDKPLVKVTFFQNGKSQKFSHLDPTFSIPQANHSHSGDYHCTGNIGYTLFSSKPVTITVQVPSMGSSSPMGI
Briefly: BLI. The gist of the method:
as §1
(In general: In BLI a coated tip is dipped into the sample, and binding shifts an interference pattern.)

Assay [4] concerns the target T4, human FcRI protein (MednaBio, E1031) (human, UniProt P12314 16-288, limits assumed).
T4 construct: Bought; loaded on anti-penta-HIS biosensors; also called FcγRI
Briefly: BLI. The gist of the method: as §1

Assay [5] concerns the target T5, human FcRn protein (MednaBio, E1032) (human, UniProt P55899 24-297; P61769 21-119).
T5 construct: Bought; assays at pH 6
Briefly: BLI. The gist of the method:
as §1

Assay [6] concerns the target T2, human FcRIIB/C protein (MednaBio, E1034). Briefly: BLI. The gist of the method: as §1
This is another data set of the same source.

In assay [7] the target is T6, human FcRIIIA-F158 protein (MednaBio, E1036) (human, UniProt P08637 17-208).
T6 construct: Bought; also called FcγRIIIA(F)
T6 sequence (P08637 17-208 limits assumed): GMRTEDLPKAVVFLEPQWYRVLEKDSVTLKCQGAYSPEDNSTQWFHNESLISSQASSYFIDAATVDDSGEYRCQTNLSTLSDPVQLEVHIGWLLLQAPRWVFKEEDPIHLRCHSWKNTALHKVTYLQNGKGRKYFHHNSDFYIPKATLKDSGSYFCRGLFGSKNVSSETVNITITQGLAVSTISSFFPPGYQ
Description: BLI. The gist of the method: as §1

Assay [8] addresses T3, human FcRIIA protein (MednaBio, E1033). Briefly: BLI. The gist of the method: as §1
This is another data set of the same source.

The target of assay [9] is T7, human FcRIIIA-V158 protein (MednaBio, E1035) (human, UniProt P08637 17-208).
T7 construct: Bought; also called FcγRIIIA(V); FcgRIIIA(V)
T7 sequence (P08637 17-208 F176V): as the sequence (P08637 17-208 limits assumed) above, with F160V counted along it
Briefly: BLI. The gist of the method:
as §1

Assay [10] deals with T4, human FcRI protein (MednaBio, E1031). Briefly: BLI. The gist of the method: as §1
This is another data set of the same source.

The target of assay [11] is T8, human FcRIIIB protein (MednaBio, E1037) (human, UniProt O75015 17-200).
T8 construct: Bought; also called FcγRIIIB; FcgRIIIB
T8 sequence (O75015 17-200 limits assumed): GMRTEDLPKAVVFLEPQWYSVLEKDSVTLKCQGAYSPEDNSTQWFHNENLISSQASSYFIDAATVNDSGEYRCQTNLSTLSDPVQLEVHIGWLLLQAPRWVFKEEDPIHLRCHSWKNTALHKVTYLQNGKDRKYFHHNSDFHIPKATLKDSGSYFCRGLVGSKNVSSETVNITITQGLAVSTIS
Description: BLI. The gist of the method: as §1

In assay [12] the target is T5, human FcRn protein (MednaBio, E1032). Briefly: BLI. The gist of the method:
as §1
The source holds these as a separate data set.

The target of assay [13] is T9, human FcγRI expressed on CHO cells (human, UniProt P12314 16-374).
T9 construct: whole, on cells
T9 sequence (P12314 16-374): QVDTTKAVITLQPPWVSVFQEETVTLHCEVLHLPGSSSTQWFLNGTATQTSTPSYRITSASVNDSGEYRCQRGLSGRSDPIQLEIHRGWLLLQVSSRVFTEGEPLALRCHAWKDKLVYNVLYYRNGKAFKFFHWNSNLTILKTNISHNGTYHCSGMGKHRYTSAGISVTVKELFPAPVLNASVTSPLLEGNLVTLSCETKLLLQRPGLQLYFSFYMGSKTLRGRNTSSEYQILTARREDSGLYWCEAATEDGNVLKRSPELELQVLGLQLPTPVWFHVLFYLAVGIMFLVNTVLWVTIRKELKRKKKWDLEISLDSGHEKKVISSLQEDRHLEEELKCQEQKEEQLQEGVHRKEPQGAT
Description: FACS, CHO cells expressing FcγRI. The gist of the method: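 Trypsin-harvested CHO cells overexpressing each FcγR were incubated 2 h at 4 °C with IgG mutants in 3% BSA/PBS. Bound IgG was detected with PE-labeled anti-human IgG (2 h, 4 °C), then cells were fixed in 2% PFA and analysed by flow cytometry.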

Where two headings read alike, the source gives them in different places.

T4 sequence (P12314 16-288 limits assumed): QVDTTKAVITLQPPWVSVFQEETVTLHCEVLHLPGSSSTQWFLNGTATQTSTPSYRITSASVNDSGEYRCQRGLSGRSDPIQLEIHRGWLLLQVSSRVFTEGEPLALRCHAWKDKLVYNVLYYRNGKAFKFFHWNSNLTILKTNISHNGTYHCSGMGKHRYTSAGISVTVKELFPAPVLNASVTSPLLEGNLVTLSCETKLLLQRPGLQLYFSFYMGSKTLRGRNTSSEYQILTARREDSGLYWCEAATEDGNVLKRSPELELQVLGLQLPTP
T5 sequence (P55899 24-297 limits assumed, form in doubt, chain 1 of 2): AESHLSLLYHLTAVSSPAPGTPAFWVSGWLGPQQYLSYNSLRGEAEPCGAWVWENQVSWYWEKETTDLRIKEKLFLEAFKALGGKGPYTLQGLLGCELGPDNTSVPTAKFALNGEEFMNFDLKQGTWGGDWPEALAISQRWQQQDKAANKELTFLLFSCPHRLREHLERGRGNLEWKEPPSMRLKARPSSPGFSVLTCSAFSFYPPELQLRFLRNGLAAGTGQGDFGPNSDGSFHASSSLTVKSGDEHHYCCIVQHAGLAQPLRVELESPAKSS
T5 sequence (P61769 21-119 limits assumed, form in doubt, chain 2 of 2): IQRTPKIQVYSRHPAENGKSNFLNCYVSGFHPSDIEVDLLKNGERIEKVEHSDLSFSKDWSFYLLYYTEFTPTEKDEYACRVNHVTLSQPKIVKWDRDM

B1: anti-CD137 IgG4 with Fc variant G4m28 (antibody)
heavy: EVQLVQSGAEVKKPGESLRISCKGSGYSFSTYWISWVRQMPGKGLEWMGKIYPGDSYTNYSPSFQGQVTISADKSISTAYLQWSSLKASDTAMYYCARGYGIFDYWGQGTLVTVSSASTKGPSVFPLAPCSRSTSESTAALGCLVKDYFPEPVTVSWNSGALTSGVHTFPAVLQSSGLYSLSSVVTVPSSSLGTKTYTCNVDHKPSNTKVDKRVESKYGPPCPPCPAPEFLGPSVFLFPPKPKDTLMISRTPEVTCVVVDVSQEDPEVQFNWYVDGVEVHNAKTKPREEQFNSTYRVVSVLTVLHQDWLNGKEYKCKVSNKGFPSSIEKTISKAKGQPREPQVYTLPPSQEEMTKNQVSLTCLVKGFYPSDIAVEWESNGQPENNYKTTPPVLDSDGSFFLYSRLTVDKSRWQEGNVFSCSVMHEALHNHYTQKSLSLSLGK
light: SYELTQPPSVSVSPGQTASITCSGDNIGDQYAHWYQQKPGQSPVLVIYQDKNRPSGIPERFSGSNSGNTATLTISGTQAMDEADYYCATYTGFGSLAVFGGGTKLTVLGQPKAAPSVTLFPPSSEELQANKATLVCLISDFYPGAVTVAWKADSSPVKAGVETTTPSKQSNNKYAASSYLSLTPEQWKSHRSYSCQVTHEGSTVEKTVAPTECS
notes: copies: 2 + 2
Consider B1, for which the binding result in [1] is given as “binds”. The Kd in assay [2] came to 180 nM; in assay [3], 1800 nM; in assay [4] it was 56 nM; in [5], 20 nM. Further, the koff in assay [2] was found to be 0.034 s⁻¹; in assay [3], 0.055 s⁻¹; in [4], 0.027 s⁻¹; in assay [5] it was 0.012 s⁻¹. In addition, the kon in assay [2] stood at 190000 M⁻¹ s⁻¹; in [3] it was 31000 M⁻¹ s⁻¹; in assay [4] it was 490000 M⁻¹ s⁻¹; in assay [5], 580000 M⁻¹ s⁻¹.

B2: anti-CD137 IgG4 with Fc variant G4m29 (antibody)
heavy: EVQLVQSGAEVKKPGESLRISCKGSGYSFSTYWISWVRQMPGKGLEWMGKIYPGDSYTNYSPSFQGQVTISADKSISTAYLQWSSLKASDTAMYYCARGYGIFDYWGQGTLVTVSSASTKGPSVFPLAPCSRSTSESTAALGCLVKDYFPEPVTVSWNSGALTSGVHTFPAVLQSSGLYSLSSVVTVPSSSLGTKTYTCNVDHKPSNTKVDKRVESKYGPPCPPCPAPEFLGPSVFLFPPKPKDTLMISRTPEVTCVVVDVEQEDPEVQFNWYVDGVEVHNAKTKPREEQFNSTYRVVSVLTVLHQDWLNGKEYKCKVSNKGFPSSIEKTISKAKGQPREPQVYTLPPSQEEMTKNQVSLTCLVKGFYPSDIAVEWESNGQPENNYKTTPPVLDSDGSFFLYSRLTVDKSRWQEGNVFSCSVMHEALHNHYTQKSLSLSLGK
light: SYELTQPPSVSVSPGQTASITCSGDNIGDQYAHWYQQKPGQSPVLVIYQDKNRPSGIPERFSGSNSGNTATLTISGTQAMDEADYYCATYTGFGSLAVFGGGTKLTVLGQPKAAPSVTLFPPSSEELQANKATLVCLISDFYPGAVTVAWKADSSPVKAGVETTTPSKQSNNKYAASSYLSLTPEQWKSHRSYSCQVTHEGSTVEKTVAPTECS
notes: copies: 2 + 2
On to B2, for which the binding result in assay [1] was “binds”. In addition, the Kd in assay [2] worked out at 78 nM; in assay [3] it was 260 nM; in assay [4], 44 nM; in [5] it was 23 nM. Moreover, the koff turned out to be 0.013 s⁻¹ in [2], 0.027 s⁻¹ in assay [3], 0.023 s⁻¹ in assay [4] and 0.013 s⁻¹ in [5]. Besides, the kon in assay [2] was found to be 170000 M⁻¹ s⁻¹; in [3], 100000 M⁻¹ s⁻¹; in [4], 520000 M⁻¹ s⁻¹; in assay [5] it was 560000 M⁻¹ s⁻¹.

B3: anti-CD137 IgG2 with Fc variant G2m19 (antibody)
heavy: EVQLVQSGAEVKKPGESLRISCKGSGYSFSTYWISWVRQMPGKGLEWMGKIYPGDSYTNYSPSFQGQVTISADKSISTAYLQWSSLKASDTAMYYCARGYGIFDYWGQGTLVTVSSASTKGPSVFPLAPCSRSTSESTAALGCLVKDYFPEPVTVSWNSGALTSGVHTFPAVLQSSGLYSLSSVVTVPSSNFGTQTYTCNVDHKPSNTKVDKTVERKCCVECPPCPAPPVASVFLFPPKPKDTLMISRTPEVTCVVVDVEHEDPEVQFNWYVDGVEVHNAKTKPREEQFNSTFRVVSVLTVVHQDWLNGKEYKCKVSNKGFPAPIEKTISKTKGQPREPQVYTLPPSREEMTKNQVSLTCLVKGFYPSDIAVEWESNGQPENNYKTTPPMLDSDGSFFLYSKLTVDKSRWQQGNVFSCSVMHEALHNHYTQKSLSLSPGK
light: SYELTQPPSVSVSPGQTASITCSGDNIGDQYAHWYQQKPGQSPVLVIYQDKNRPSGIPERFSGSNSGNTATLTISGTQAMDEADYYCATYTGFGSLAVFGGGTKLTVLGQPKAAPSVTLFPPSSEELQANKATLVCLISDFYPGAVTVAWKADSSPVKAGVETTTPSKQSNNKYAASSYLSLTPEQWKSHRSYSCQVTHEGSTVEKTVAPTECS
notes: copies: 2 + 2
Regarding B3, the values for the Kd in assay [6], in assay [8] and in assay [12] were 240 nM, 336 nM and 35.4 nM, respectively. Besides, the koff in [6] amounted to 0.0387 s⁻¹; in assay [8] it was 0.0836 s⁻¹; in assay [12] it was 0.00941 s⁻¹. The values for the kon in assay [6], in assay [8] and in [12] were 162000 M⁻¹ s⁻¹, 249000 M⁻¹ s⁻¹ and 265000 M⁻¹ s⁻¹, respectively. In addition, the binding result in [7] is “no binding (tested: 300 nM)”; in assay [9], “no binding (tested: 300 nM)”; in assay [10] it was “no binding (tested: 300 nM)”; in [11], “no binding (tested: 300 nM)”; in [13], “no binding (tested: 10 ug/mL)”.

B4: anti-CD137 IgG2 with Fc variant G2m28 (antibody)
heavy: EVQLVQSGAEVKKPGESLRISCKGSGYSFSTYWISWVRQMPGKGLEWMGKIYPGDSYTNYSPSFQGQVTISADKSISTAYLQWSSLKASDTAMYYCARGYGIFDYWGQGTLVTVSSASTKGPSVFPLAPCSRSTSESTAALGCLVKDYFPEPVTVSWNSGALTSGVHTFPAVLQSSGLYSLSSVVTVPSSNFGTQTYTCNVDHKPSNTKVDKTVERKCCVECPPCPAPPVAPSVFLFPPKPKDTLMISRTPEVTCVVVDVEHEDPEVQFNWYVDGVEVHNAKTKPREEQFNSTFRVVSVLTVVHQDWLNGKEYKCKVSNKGLPAPIEKTISKTKGQPREPQVYTLPPSREEMTKNQVSLTCLVKGFYPSDIAVEWESNGQPENNYKTTPPMLDSDGSFFLYSKLTVDKSRWQQGNVFSCSVMHEALHNHYTQKSLSLSPGK
light: SYELTQPPSVSVSPGQTASITCSGDNIGDQYAHWYQQKPGQSPVLVIYQDKNRPSGIPERFSGSNSGNTATLTISGTQAMDEADYYCATYTGFGSLAVFGGGTKLTVLGQPKAAPSVTLFPPSSEELQANKATLVCLISDFYPGAVTVAWKADSSPVKAGVETTTPSKQSNNKYAASSYLSLTPEQWKSHRSYSCQVTHEGSTVEKTVAPTECS
notes: also called Gbn28; copies: 2 + 2
On to B4, for which the Kd in assay [6] is 256 nM; in assay [7], 527 nM; in [8], 191 nM; in assay [10], 66.1 nM; in assay [12] it was 26.4 nM. The off-rate (koff) in [6] turned out to be 0.0464 s⁻¹; in assay [7] it was 0.257 s⁻¹; in assay [8], 0.0898 s⁻¹; in [10], 0.098 s⁻¹; in assay [12], 0.0195 s⁻¹. The kon in assay [6] turned out to be 181000 M⁻¹ s⁻¹; in assay [7] it was 487000 M⁻¹ s⁻¹; in [8] it was 470000 M⁻¹ s⁻¹; in assay [10], 1.49e+06 M⁻¹ s⁻¹; in assay [12], 737000 M⁻¹ s⁻¹. In addition, the binding result in assay [9] and in assay [11] was “no binding (tested: 300 nM)” throughout.

One may read the Kd as the equilibrium constant for the complex coming apart. Broadly, the koff is the first-order rate constant of dissociation. Read a high koff as fast dissociation. As a reminder, the kon is a measure of how fast the partners come together. Read a low kon as slow association.
